# Test results: patent US20090208476A1 (published 2009)
# Where no end group is shown, it is not given here.
# T1: Plasmodium falciparum MSP1-19 (C-terminal fragment of merozoite surface protein 1) (Plasmodium falciparum, UniProt Q8I0U8 1607-1699)
# T1 construct: domain: MSP1-19; also called Pf MSP1-19; PfMSP1-19
# T1 sequence: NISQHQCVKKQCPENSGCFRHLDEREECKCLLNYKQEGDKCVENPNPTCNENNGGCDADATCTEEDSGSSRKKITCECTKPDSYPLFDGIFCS
# T2: DC-SIGN (DC-specific intercellular adhesion molecule 3-grabbing nonintegrin) (UniProt Q9NNX6 62-404, limits assumed)
# T2 sequence (looked up): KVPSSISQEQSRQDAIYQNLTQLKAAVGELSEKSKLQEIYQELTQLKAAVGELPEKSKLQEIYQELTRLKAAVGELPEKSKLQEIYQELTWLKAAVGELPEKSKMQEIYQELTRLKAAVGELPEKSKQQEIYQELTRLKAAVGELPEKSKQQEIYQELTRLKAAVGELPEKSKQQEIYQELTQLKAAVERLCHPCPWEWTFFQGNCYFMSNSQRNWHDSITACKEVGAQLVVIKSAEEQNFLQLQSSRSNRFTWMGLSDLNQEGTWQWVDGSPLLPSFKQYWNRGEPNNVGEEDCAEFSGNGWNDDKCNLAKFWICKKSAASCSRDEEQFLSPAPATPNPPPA
# B1: GST-Azu 36-128 (GST fused to azurin amino acids 36 to 128) (other)
# chain: PGNLPKNVMGHNWVLSTAADMQGVVTDGMASGLDKDYLKPDDSRVIAHTKLIGSGEKDSVTFDVSKLKEGEQYMFFCTFPGHSALMKGTLTLK
# notes: The azurin fragment was cloned into the BamHI/EcoRI sites of pGEX-5X; not shown: glutathione S-transferase from the commercial vector pGEX-5X
# B2: GST-Azu 88-113 (GST fused to azurin amino acids 88 to 113) (other)
# chain: {GST}-GSGEKDSVTFDVSKLKEGEQYMFFCT
# modifications: also: GST fusion, vector linker residues not given here
# notes: not shown: glutathione S-transferase from the commercial vector pGEX-5X
# B3: GST-Azu 36-89 (GST fused to azurin amino acids 36 to 89) (other)
# chain: {GST}-PGNLPKNVMGHNWVLSTAADMQGVVTDGMASGLDKDYLKPDDSRVIAHTKLIGS
# modifications: also: GST fusion, vector linker residues not given here
# notes: also called pGST-azu 36-89 product; not shown: glutathione S-transferase from the commercial vector pGEX-5X
# Legend:
# [1] = target: T1, Plasmodium falciparum MSP1-19 …; experiment: SPR, MSP1-19 immobilised on CM5 chip
# [2] = target: T3, CD4 (UniProt P01730 26-396); experiment: SPR, CD4 immobilised on CM5 chip, equilibrium fit Req=Rmax/(1+(Kd/C))
# T3 construct: Bought protein; also called CD4 (Protein Sciences Corp.)
# [3] = target: T2, DC-SIGN (DC-specific intercellular …); experiment: SPR, DC-SIGN immobilised on CM5 chip, equilibrium fit Req=Rmax/(1+(Kd/C))
Binder,Kd [1] [nM],Kd [2] [nM],Kd [3] [nM]
B1,24.5,0.34,–
B2,–,–,5.98
B3,20.9,–,–
